Source: article PMC6746701, “A phyB-PIF1-SPA1 kinase regulatory complex promotes photomorphogenesis in Arabidopsis” (Nature Communications, 2019)
Substitutions are numbered along the chain they refer to.

Tests used:
[1] = target: T1, strep-tagged full-length SPA1 (SUPPRESSOR OF PHYA-105 1) (Arabidopsis, UniProt Q9SYX2 1-1029); experiment: pull-down; 2 µg GST-PIF1 on GST agarose beads, 1 µg SPA1 or mSPA1; 50 mM Tris pH 7.5, 150 mM NaCl, 1 mM EDTA, 0.1% Tergitol NP-40, 0.5 mM DTT; 2 h at 4 °C; Coomassie staining; details: both partners purified
T1 construct: 3x Flag was cloned into the SnaBI site of pPIC3.5K SPA1-strep; also called SPA1-strep; wild type SPA1; source: Pichia pastoris GS115, purified (Strep-Tactin Sepharose); not shown: Strep tag, C-terminal, kept
T1 sequence (looked up): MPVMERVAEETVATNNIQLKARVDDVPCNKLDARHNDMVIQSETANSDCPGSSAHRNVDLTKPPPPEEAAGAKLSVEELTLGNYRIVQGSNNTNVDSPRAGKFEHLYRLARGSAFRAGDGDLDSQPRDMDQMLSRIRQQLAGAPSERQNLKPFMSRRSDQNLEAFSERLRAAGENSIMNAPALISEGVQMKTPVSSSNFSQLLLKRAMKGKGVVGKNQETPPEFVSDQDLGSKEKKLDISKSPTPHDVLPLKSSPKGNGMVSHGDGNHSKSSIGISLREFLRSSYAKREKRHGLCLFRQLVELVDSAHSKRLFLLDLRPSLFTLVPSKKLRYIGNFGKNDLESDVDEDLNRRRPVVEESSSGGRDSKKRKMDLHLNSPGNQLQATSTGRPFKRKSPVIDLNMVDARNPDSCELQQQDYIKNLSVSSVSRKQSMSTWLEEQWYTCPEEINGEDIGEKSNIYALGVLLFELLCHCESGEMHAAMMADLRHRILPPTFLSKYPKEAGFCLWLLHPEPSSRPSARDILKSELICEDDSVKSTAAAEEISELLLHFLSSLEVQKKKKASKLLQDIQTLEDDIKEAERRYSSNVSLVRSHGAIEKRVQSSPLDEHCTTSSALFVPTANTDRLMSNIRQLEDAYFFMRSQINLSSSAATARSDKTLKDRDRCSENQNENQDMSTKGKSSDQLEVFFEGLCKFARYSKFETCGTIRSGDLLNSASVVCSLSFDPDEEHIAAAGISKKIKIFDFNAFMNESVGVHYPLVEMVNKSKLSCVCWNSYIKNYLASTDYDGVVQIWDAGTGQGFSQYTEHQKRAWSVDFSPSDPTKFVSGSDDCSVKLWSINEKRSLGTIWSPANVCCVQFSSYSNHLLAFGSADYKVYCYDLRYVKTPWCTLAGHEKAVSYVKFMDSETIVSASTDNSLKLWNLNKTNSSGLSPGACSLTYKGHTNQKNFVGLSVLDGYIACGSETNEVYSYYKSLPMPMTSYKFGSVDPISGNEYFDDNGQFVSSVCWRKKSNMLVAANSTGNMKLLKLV

[2] = target: T2, strep-tagged full-length mSPA1 (SPA1 R517E) (Arabidopsis, UniProt Q9SYX2 1-1029, R517E); experiment: as above; details: both partners purified
T2 construct: SPA1, Arabidopsis, full length, with the kinase-domain point mutation R517E; Same construct as m1 apart from R517E; also called mSPA1-strep; mutant SPA1; source: Pichia pastoris, purified (Strep-Tactin Sepharose); not shown: Strep tag, C-terminal, kept
T2 sequence (looked up): T1 sequence (looked up) with R517E

B1: GST-PIF1-strep (natural protein, Arabidopsis, UniProt Q8GZM7 1-478, looked up)
chain: MHHFVPDFDTDDDYVNNHNSSLNHLPRKSITTMGEDDDLMELLWQNGQVVVQNQRLHTKKPSSSPPKLLPSMDPQQQPSSDQNLFIQEDEMTSWLHYPLRDDDFCSDLLFSAAPTATATATVSQVTAARPPVSSTNESRPPVRNFMNFSRLRGDFNNGRGGESGPLLSKAVVRESTQVSPSATPSAAASESGLTRRTDGTDSSAVAGGGAYNRKGKAVAMTAPAIEITGTSSSVVSKSEIEPEKTNVDDRKRKEREATTTDETESRSEETKQARVSTTSTKRSRAAEVHNLSERKRRDRINERMKALQELIPRCNKSDKASMLDEAIEYMKSLQLQIQMMSMGCGMMPMMYPGMQQYMPHMAMGMGMNQPIPPPSFMPFPNMLAAQRPLPTQTHMAGSGPQYPVHASDPSRVFVPNQQYDPTSGQPQYPAGYTDPYQQFRGLHPTQPPQFQNQATSYPSSSRVSSSKESEDHGNHTTG
notes: source: E. coli BL21(DE3), purified (Strep-Tactin Sepharose); not shown: GST, N-terminal, kept; Strep tag, C-terminal, kept
B1: binds [1]; binds [2].
